Measurements as given in article PMC7192382.

test system: MtKNOX3 homeodomain (Medicago truncatula); experiment: SPR; details: SPR: PBS (150 mM NaCl, 2 mM Na2HPO4)/Tween pH 7.4, BSA 670 ug/ml, protein 0-10 uM, temperature not stated; EMSA: LightShift binding buffer (stock as printed …)

Row | Substance | Kd
1 | LOG1 (MtLOG1 first intron site) | 0.555 µM
2 | LOG2-1 (MtLOG2 promoter site) | 28 µM
3 | IPT3-1 (MtIPT3 promoter site) | 2.22 µM
